Assay results as given in PMC4595758, “Redox-switch regulatory mechanism of thiolase from Clostridium acetobutylicum” (Nature Communications, 2015).
Positions count from the first letter of the chain named. Numbers in names are those of the source.

B1: Clostridium acetobutylicum thiolase (CaTHL), wild type, oxidized form (enzyme, UniProt P45359 1-392, looked up)
chain: MKEVVIASAVRTAIGSYGKSLKDVPAVDLGATAIKEAVKKAGIKPEDVNEVILGNVLQAGLGQNPARQASFKAGLPVEIPAMTINKVCGSGLRTVSLAAQIIKAGDADVIIAGGMENMSRAPYLANNARWGYRMGNAKFVDEMITDGLWDAFNDYHMGITAENIAERWNISREEQDEFALASQKKAEEAIKSGQFKDEIVPVVIKGRKGETVVDTDEHPRFGSTIEGLAKLKPAFKKDGTVTAGNASGLNDCAAVLVIMSAEKAKELGVKPLAKIVSYGSAGVDPAIMGYGPFYATKAAIEKAGWTVDELDLIESNEAFAAQSLAVAKDLKFDMNKVNVNGGAIALGHPIGASGARILVTLVHAMQKRDAKKGLATLCIGGGQGTAILLEKC
notes: Thiolase (acetyl-CoA acetyltransferase) of Clostridium acetobutylicum, amino acid residues 1-392, amplified from the chromosome and cloned into pET30a; In the crystal (oxidized form) a disulfide bond joins Cys88 and Cys378, and residues 280-292 are disordered; Two molecules per asymmetric unit; the tetramer is generated by crystallographic symmetry; also called C. acetobutylicum thiolase; type II …
B2: Clostridium acetobutylicum thiolase C378S mutant (reduced form of CaTHL) (enzyme, UniProt P45359 1-392, looked up)
chain: B1 chain with C378S
notes: Thiolase (acetyl-CoA acetyltransferase) of Clostridium acetobutylicum, amino acid residues 1-392, with the C378S mutation made by site-directed mutagenesis; Crystallized with 10 mM DTT; For the CoA complex the crystals were soaked with 30 mM CoA for 30 min; also called CaTHL C378S mutant

Tests used:
[1] = biological target: the molecule itself; test: crystal structure; oxidized form of CaTHL, 1.77 Å, space group P2(1)2(1)2, two molecules per asymmetric unit, tetramer generated by crystallographic symmetry; crystals from 100 mM phosphate-citrate pH 4.2, 10% PEG 3,350, 200 mM sodium chloride at 293 K
[2] = biological target: the molecule itself; test: crystal structure; CaTHL C378S (reduced form, 10 mM DTT) crystals soaked with 30 mM CoA for 30 min, 1.90 Å, space group P2(1)2(1)2

| Protein | stoichiometry N [1] | binding result [2] |
| --- | --- | --- |
| B1 | 4 |  |
| B2 |  | binds |
